# From the supplement of paper PMC10567573
# ± gives the standard deviation.
# Assay: protein stability index of a GFP-peptide fusion (GPS, HEK-293T) (PSI 1-6); higher = more stable
# [1] = treatment: DMSO, c terminus: a fixed tail appended
# [2] = treatment: MLN4924 1 uM, 8 h, c terminus: a fixed tail appended
# 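Further: 24-mer peptide tiles fused after GFP, lentivirally expressed, FACS-sorted into six equal bins by GFP/DsRed ratio, decoded by Illumina sequencing, PSI is the read-weighted mean bin number.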
Sequence,protein stability index [1],protein stability index [2],"protein stability index (treatment: DMSO, c terminus: native)","protein stability index (treatment: MLN4924 1 uM, 8 h, c terminus: native)"
ELIRNIYNSFHKLRDRAERIASRA [SNX8],2.22 ± 0.75,2.17 ± 0.27,,
HFPHLLSPQIQRSAHRALYRRHVL [TMEM175],2.69 ± 0.26,2.85 ± 0.15,,
IMDRFDCQYLMATFVNVYIASFIR [CDS2],3.423 ± 0.005,3.33 ± 0.31,,
NTTCVGRYPVCKFPSLQVTAILIE [FEM1C],2.67 ± 0.48,2.23 ± 0.21,,
LPHPGLQVATSPDFDGKLKDIAGE [ATL3],4.91 ± 0.25,5.11 ± 0.26,,
TPRSPEGTTEAATQDGKEQPELPC [PXN],5.38 ± 0.22,5.36 ± 0.23,,
KPYIAAHFDVLPTEFTLGDDKHYG [PTPRD],3.28 ± 0.49,3.44 ± 0.14,,
WKDLTLSTRPEEGCSLHEEDTQRH [TCAP],5.08 ± 0.25,5.13 ± 0.28,,
DFWLMVWEQKVLVIVMTTRFEEGG [PTPN9],2.69 ± 0.77,2.58 ± 0.07,,
LLWSDPADNKIVSHLLVAEPEKIY [ESRRG],2.36 ± 0.3,2.55 ± 0.16,,
HPFFDTAEPDMDDPAYIAVLVLIF [INTS4],2.61 ± 0.57,2.66 ± 0.62,,
APLGYKEPERQVQHEESTEGEADH [UFD1],5.55 ± 0.22,5.5 ± 0.3,,
GGDKLETMPLYLEDDIRPDIKDDI [SCD],4.9 ± 0.4,5 ± 0.34,,
QVITQTGVPGQPLNFKAEPESETS [PTPRD],5.18 ± 0.24,5.31 ± 0.25,,
LASHLPVGVMLPHNTTEAPGPHSA [ZC2HC1C],4.3 ± 0.21,4.17 ± 0.21,,
RYSGKILKNNETLVQHGVKPQEIV [IQUB],3.42 ± 0.21,3.71 ± 0.53,,
GDWARLLEQMGALAVRGSRREREL [ZBED3],3.13 ± 0.51,2.89 ± 0.3,,
PKGRFERKRNPSRKKQHICDECGK [ZNF24],3.82 ± 0.49,,,
RRWKLQVLDLRKNSHQDFWTVWSG [PRAME],2.46 ± 0.73,2.07 ± 0.44,,
IHPKSIDLDNYFTARRLLSQVRAL [NFE2L1],2.25 ± 0.32,2.54 ± 0.18,,
FWNFKQMWDSKKIGLRQHHCRKCG [WDFY2],2.34 ± 0.28,2.66 ± 0.45,,
WKIAPAMAAGNTVIAKPSELTSVT [ALDH8A1],3.12 ± 0.41,3.17 ± 0.53,,
KRSAPSGPVRSSSGMGGRAPVSRG [RBMX],4.59 ± 0.25,4.57 ± 0.16,,

Sequence,protein stability index [1],protein stability index [2],"protein stability index (treatment: DMSO, c terminus: native)","protein stability index (treatment: MLN4924 1 uM, 8 h, c terminus: native)"
RLKKEEEDRIVTQNRVFAYLCKRV [CEP70],2.55 ± 0.31,2.86 ± 0.43,,
REAFPSWSSRSPQERSRVLNQVAD [ALDH8A1],4.2 ± 0.33,4.233 ± 0.03,,
KVNSKKMLGKYNTPVSYRMAKTLV [ACSBG2],1.81 ± 0.082,2.05 ± 0.42,,
KSERRNLLEDDSDEEEDFFLRGPS [VAMP4],5.09 ± 0.26,5.15 ± 0.66,,
MREMFFEDHIDDAKYCGHLYGLGS [CNOT7],2.68 ± 0.093,2.44 ± 0.28,,
LPEPSKRGPPHGWPKLCPCLRSGI [MYCL],2.04 ± 0.64,2.85 ± 0.054,,
MFFTCGPNEAMVVSGFCRSPPVMV [FLOT1],2.93 ± 0.52,2.9 ± 0.74,,
GTAHIPPTMHLESPALQVMGPAQE [ZNF449],4.78 ± 0.25,4.73 ± 0.17,,
CKKLSLELGGKNPAIIFEDANLDE [ALDH8A1],4.4 ± 0.11,4.32 ± 0.26,,
RGTGQLNRFVQLSGRPHLPGKKKI [KLHDC10],2.99 ± 0.2,3.03 ± 0.26,,
MYEEEINETRRKHETRLVEVDSGR [LMNB1],5.04 ± 0.44,5.06 ± 0.099,,
ILFLNKKDLFEEKIKKSPLTICYP [GNAI1],2.43 ± 0.9,2.21 ± 0.75,,
KKTMSTFHNLVSLNLNYNCISDEL [FBXO39],2.09 ± 0.21,2.18 ± 0.22,,
RDYAPPSRGYAYRDNGHSNRDEHS [RBMY1A1],4.59 ± 0.11,4.57 ± 0.36,,
EAAGSFTSSLAQPGAYYPYERTLG [IRX6],3.24 ± 0.14,3.28 ± 0.42,,
ELRTAKDSDDDDDVAVTVDRDRFM [STX1A],5.37 ± 0.06,5.25 ± 0.14,,
VNHRIYYKGHIPEKLETFVSLHR [FEM1C],,,2.24 ± 0.17,2.305 ± 0.015
FFAFLHCWLNAFAEMLRFGDRMFY [SOAT2],3.14 ± 0.56,3.44 ± 0.23,,
FHTMDELVEHYKKAPIFTSEHGEK [NCK2],3.88 ± 0.35,3.97 ± 0.27,,
TLLHFSAARGKERCVRVFLEHGAD [ASB7],2 ± 0.2,2.21 ± 0.3,,
LRRSVEKYNSARADFEQKMLDSAL [FCHO1],3.29 ± 0.54,3.35 ± 0.14,,
REVALLRRLEAFEHPNVVRLMDVC [CDK4],2.52 ± 0.15,2.68 ± 0.2,,
